We go through one molecule from US20170128524A1 (published 2017).

This assay has as its target T1, Syntaxin 1a (mouse, UniProt O35526 1-288).
T1 construct: also called STX1a; STX 1a
Nature of the assay: Co-IP with anti-STX1a antibody from mouse cortical synaptosomes, Western blot. On the technique in general: In western blotting, separated proteins are transferred to a membrane and probed.

T1 sequence (O35526 whole entry): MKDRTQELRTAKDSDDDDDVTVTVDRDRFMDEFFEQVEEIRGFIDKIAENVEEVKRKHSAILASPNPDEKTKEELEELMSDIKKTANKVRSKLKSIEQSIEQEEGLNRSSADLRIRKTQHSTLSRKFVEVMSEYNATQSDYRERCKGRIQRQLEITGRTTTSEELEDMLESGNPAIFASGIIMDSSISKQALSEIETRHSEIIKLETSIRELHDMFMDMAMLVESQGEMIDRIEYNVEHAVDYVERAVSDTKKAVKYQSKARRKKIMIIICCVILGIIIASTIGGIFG

B1: c-Jun N-terminal Kinase isoform 1 (JNK1) (enzyme, mouse, UniProt Q91Y86 1-384, looked up)
chain: MSRSKRDNNFYSVEIGDSTFTVLKRYQNLKPIGSGAQGIVCAAYDAILERNVAIKKLSRPFQNQTHAKRAYRELVLMKCVNHKNIIGLLNVFTPQKSLEEFQDVYIVMELMDANLCQVIQMELDHERMSYLLYQMLCGIKHLHSAGIIHRDLKPSNIVVKSDCTLKILDFGLARTAGTSFMMTPYVVTRYYRAPEVILGMGYKENVDLWSVGCIMGEMVCHKILFPGRDYIDQWNKVIEQLGTPCPEFMKKLQPTVRTYVENRPKYAGYSFEKLFPDVLFPADSEHNKLKASQARDLLSKMLVIDASKRISVDEALQHPYINVWYDPSEAEAPPPKIPDKQLDEREHTIEEWKELIYKEVMDLEERTKNGVIRGQPSPLAQVQQ
notes: Lower 46 kDa band of the JNK signal in the non-immunoprecipitated control; also called lower band, 46 kDa
In the case of B1, the binding result is reported as “no binding”.
